Measured values as given in US20240400693A1 (Chugai, published 2024).
Where a chain is given by its changes, count along the chain named.

T1: HLA-DQ6.3 on Ba/F3 cells (human, UniProt P01920 33-230, limits assumed)
T1 construct: whole, on cells; also called Ba/F3-HLA-DQ6.3
T1 MHC II alpha: not shown
T1 MHC II beta: not shown

T2: HLA-DQ5.1 on Ba/F3 cells (human, limits assumed)
T2 construct: whole, on cells; also called Ba/F3-HLA-DQ5.1
T2 MHC II alpha: not shown
T2 MHC II beta: not shown

B1: DQN0344H0976/L0591//DQN0385H1270/L0681-F6 (bispecific antibody)
heavy 1: QVQLVESGGGVVQPGGSLRLSCAASGFTFSSAYWMVWVRQAPGQGLEWMGAVYGGSDTTYYAKWTEGRFTISRDTSKNTLYLQMNSLRAEDTAVYYCAREPLNYYYYGELNLWGQGTLVTVSSASTKGPSVFPLAPSSKSTSGGTAALGCLVKDYFPEPVTVSWNSGALTSGVHTFPAVLKSSGLYSLSSVVTVPSSSLGTQTYICNVNHKPSNTKVDKRVEPKSCDKTHTCPPCPAPELRRGPSVFLFPPKPKDTLMISRTPEVTCVVVDVSHEDPEVKFNWYVDGVEVHNAKTKPREEQYNSTYRVVSVLTVLHQDWLNGKEYKCKVSNKALPAPIEKTISKAKGQPREPQVYTLPPSREEMTKNQVSLTCLVKGFYPSDIAVEWESNGQPENNYKTTPPYLDSDGSFFLYSKLTVDKSRWQEGNVFSCSVLHEALHAHYTREELSLSP
light 1: DIQMTQSPSSLSASVGDRVTITCQATEEIYSGLAWYQQKPGKAPKLLIYYVSTLYEGIPARFSGSGSGTDFTLTISSLEPEDFAVYYCQTYEDVSAVTFGQGTKVEIKRTVAAPSVFIFPPSDEQLKSGTAEVVCLLNNFYPREAKVQWKVDNALQSGNSEESVTEQDSKDSTYSLSSTLTLSKADYEKHKVYACEVTHQGLSSPVTKSFNRGEC
heavy 2: QVQLVESGGGVVQPGRSLRLSCAASGFTFSEWYFMSWVRQAPGKGLEWVASIDTGSGSIDYAEWVEGRFTISRDNSKNTLYLQMNSLRAEDTAVYYCARDIGIDYNFWGPGTLVTVSSASTKGPSVFPLAPSSKSTSGGTAALGCLVEDYFPEPVTVSWNSGALTSGVHTFPAVLESSGLYSLSSVVTVPSSSLGTKTYICNVNHKPSNTKVDKRVEPKSCDKTHTCPPCPAPELRRGPSVFLFPPKPKDTLMISRTPEVTCVVVDVSHEDPEVKFNWYVDGVEVHNAKTKPREEQYNSTYRVVSVLTVLHQDWLNGKEYKCKVSNKALPAPIEKTISKAKGQPREPQVYTLPPSRKEMTKNQVSLTCLVKGFYPSDIAVEWESNGQPENNYKTTPPYLDSDGSFFLYSKLTVDKSRWQQGNVFSCSVLHEALHAHYTRKELSLSP
light 2: DIQMTQSPSSLSASVGDRVTITCQTTQSISSYLNWYQQKPGQPPKLLIYYASTKAEGIPARFSGSGLGTDFTLTISSLEPEDFAVYYCHYGISKVSFGQGTKVEIKRTVAAPSVFIFPPSDEQLKSGTAKVVCLLNNFYPREAKVQWKVDNALQSGNSKESVTEQDSKDSTYSLSSTLTLSKADYEKHKVYACEVTHQGLSSPVTKSFNRGEC
B2: DQN0344H1013/L0620//DQN0385H1270/L0681-F6 (bispecific antibody)
heavy 1: B1 heavy 1 with G16R, L112V
light 1: B1 light 1 with E28N, Y55A, E56Y
heavy 2: B1 heavy 2
light 2: B1 light 2
B3: DQN0344H0976/L0591//DQN0385H1527/L0605-F6 (bispecific antibody)
heavy 1: B1 heavy 1
light 1: B1 light 1
heavy 2: B1 heavy 2 with S30A, E31S
light 2: B1 light 2 with L67S
B4: DQN0344H1013/L0620//DQN0385H1353/L0681-F6 (bispecific antibody)
heavy 1: B1 heavy 1 with G16R, L112V
light 1: B1 light 1 with E28N, Y55A, E56Y
heavy 2: B1 heavy 2 with S30A
light 2: B1 light 2
B5: DQN0344H0976/L0591//DQN0385H1352/L0681-F6 (bispecific antibody)
heavy 1: B1 heavy 1
light 1: B1 light 1
heavy 2: B1 heavy 2 with T28E
light 2: B1 light 2
B6: DQN0344H0976/L0591//DQN0385H1255/L0605-F6 (bispecific antibody)
heavy 1: B1 heavy 1
light 1: B1 light 1
heavy 2: B1 heavy 2 with E63G, G67E
light 2: B1 light 2 with L67S
B7: DQN0344H0976/L0591//DQN0385H1270/L0722-F6 (bispecific antibody)
heavy 1: B1 heavy 1
light 1: B1 light 1
heavy 2: B1 heavy 2
light 2: B1 light 2 with E79Q

molecular target: HLA-DQ2.5 on IHW09023 cells loaded with gamma 2 gliadin peptide (human; wheat); assay: cell-based or functional assay

Row | Binder | IC50 (ng/mL), γ2 gliadin TCR, 250 nM γ2 gliadin [ng/mL]
1 | B1 | 182
2 | B2 | 322
3 | B3 | 637
4 | B4 | 100
5 | B5 | 284
6 | B6 | 440
7 | B7 | 281

molecular target: HLA-DQ2.5 on IHW09023 cells loaded with omega1/2 gliadin peptide (human; wheat); assay: cell-based or functional assay

Row | Binder | IC50 (ng/mL), ω1 gliadin TCR, 25 µM ω1/2 gliadin [ng/mL] | IC50 (ng/mL), ω2 gliadin TCR, 250 nM ω1/2 gliadin [ng/mL]
8 | B1 | 2.07 | 0.26
9 | B2 | 2.51 | 0.2
10 | B3 | 3.25 | 0.3
11 | B4 | 1.17 | 0.17
12 | B5 | 1.48 | 0.24
13 | B6 | 2.62 | 0.25
14 | B7 | 2.55 | 0.26

molecular target: HLA-DQ2.5 on IHW09023 cells loaded with BC hordein peptide (human; barley); assay: cell-based or functional assay

Row | Binder | IC50 (ng/mL), BC hordein TCR, 250 nM BC hordein [ng/mL]
15 | B1 | 12
16 | B2 | 7.54
17 | B3 | 6.54
18 | B4 | 8.78
19 | B5 | 10.8
20 | B6 | 13.6
21 | B7 | 13.2

molecular target: HLA-DQ2.5 on IHW09023 cells loaded with gamma 4a gliadin peptide (human; wheat); assay: cell-based or functional assay

Row | Binder | IC50 (ng/mL), γ4a gliadin TCR, 25 µM γ4a gliadin [ng/mL]
22 | B1 | 749
23 | B2 | 1160
24 | B3 | 1210
25 | B4 | 1250
26 | B5 | 802
27 | B6 | 1430
28 | B7 | 726

molecular target: HLA-DQ2.5 on IHW09023 cells loaded with 33mer gliadin peptide (human; wheat); assay: cell-based or functional assay

Row | Binder | IC50 (ng/mL), α1b gliadin TCR, 250 nM 33mer gliadin [ng/mL] | IC50 (ng/mL), α2 gliadin TCR, 250 nM 33mer gliadin [ng/mL] | IC50 (ng/mL), α1a gliadin TCR, 250 nM 33mer gliadin [ng/mL]
29 | B1 | 1.36 | 0.34 | –
30 | B2 | 1.78 | 0.33 | 0.38
31 | B3 | 1.84 | 0.51 | 0.7
32 | B4 | 1.13 | 0.34 | 0.29
33 | B5 | 1.37 | 0.31 | 0.29
34 | B6 | 2.66 | 0.56 | 0.49
35 | B7 | 1.41 | 0.31 | 0.38

molecular target: HLA-DQ2.5 on IHW09023 cells loaded with gamma 4d gliadin peptide (human; wheat); assay: cell-based or functional assay

Row | Binder | IC50 (ng/mL), γ4d gliadin TCR, 100 µM γ4d gliadin [ng/mL]
36 | B1 | 11.8
37 | B2 | 13.1
38 | B3 | 11.4
39 | B4 | 2.06
40 | B5 | 9.82
41 | B6 | 12.4
42 | B7 | 16.3

molecular target: HLA-DQ2.5 on IHW09023 cells loaded with gamma 3 gliadin peptide (human; wheat); assay: cell-based or functional assay

Row | Binder | IC50 (ng/mL), γ3 gliadin TCR, 100 µM γ3 gliadin [ng/mL]
43 | B1 | 2.4
44 | B2 | 2.63
45 | B3 | 2.09
46 | B4 | 2.29
47 | B5 | 2.99
48 | B6 | 2.31
49 | B7 | 2.88

molecular target: HLA-DQ2.5 on IHW09023 cells loaded with gamma 1 gliadin peptide (human; wheat); assay: cell-based or functional assay

Row | Binder | IC50 (ng/mL), γ1 gliadin TCR, 250 nM γ1 gliadin [ng/mL]
50 | B1 | 1.05
51 | B2 | 1.11
52 | B3 | 0.59
53 | B4 | 0.56
54 | B5 | 1.11
55 | B6 | 0.91
56 | B7 | 0.66

Molecular target: T1, HLA-DQ6.3 on Ba/F3 cells
Assay: FACS, Ba/F3 cells; raw MFI

Row | Binder | binding result
57 | B4 | no binding (tested: 0.05 micro g/mL)

molecular target: T3, HLA-DP on Ba/F3 cells (human, UniProt P20036 29-222; P04440 30-225, limits assumed); assay: FACS, Ba/F3 cells; raw MFI
T3 construct: whole, on cells; also called Ba/F3-HLA-DP
T3 sequence (P20036 29-222 limits assumed, chain 1 of 4, other chains not shown): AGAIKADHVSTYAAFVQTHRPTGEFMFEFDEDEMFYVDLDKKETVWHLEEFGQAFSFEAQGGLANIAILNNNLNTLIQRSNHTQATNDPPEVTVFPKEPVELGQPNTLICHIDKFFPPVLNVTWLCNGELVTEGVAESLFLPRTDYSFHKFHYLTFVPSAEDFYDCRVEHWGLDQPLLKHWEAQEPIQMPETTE
T3 sequence (P04440 30-225 limits assumed, chain 2 of 4, other chains not shown): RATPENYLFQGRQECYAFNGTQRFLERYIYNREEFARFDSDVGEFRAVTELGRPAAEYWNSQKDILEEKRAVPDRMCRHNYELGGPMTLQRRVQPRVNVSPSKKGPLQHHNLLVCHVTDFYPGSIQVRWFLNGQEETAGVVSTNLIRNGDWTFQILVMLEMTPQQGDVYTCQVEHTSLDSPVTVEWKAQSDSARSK

Row | Binder | binding result
58 | B4 | no binding (tested: 0.05 micro g/mL)

Molecular target: T2, HLA-DQ5.1 on Ba/F3 cells
Assay: FACS, Ba/F3 cells; raw MFI

Row | Binder | binding result
59 | B4 | no binding (tested: 0.05 micro g/mL)
